Measurements reported in IntAct's records for PubMed 24968893.

B1: Autophagy-related protein 19 (Saccharomyces cerevisiae), P35193 (parent)
chain: MNNSKTNQQMNTSMGYPLTVYDECNKFQLIVPTLDANIMLWCIGQLSLLNDSNGCKHLFWQPNDKSNVRILLNNYDYGHLFKYLQCQRKCSVYIGEGTLKKYNLTISTSFDNFLDLTPSEEKESLCREDAHEDPVSPKAGSEEEISPNSTSNVVVSRECLDNFMKQLLKLEESLNKLELEQKVTNKEPNHRISGTIDIPEDRSELVNFFTELKTVKQLEDVFQRYHDYERLSQECDSKTEIASDHSKKETKIEVEPPNERSLQITMNQRDNSLYFQLFNNTNSVLAGNCKLKFTDAGDKPTTQIIDMGPHEIGIKEYKEYRYFPYALDLEAGSTIEIENQYGEVIFLGKYGSSPMINLRPPSRLSAESLQASQEPFYSFQIDTLPELDDSSIISTSISLSYDGDDNEKALTWEEL
partner: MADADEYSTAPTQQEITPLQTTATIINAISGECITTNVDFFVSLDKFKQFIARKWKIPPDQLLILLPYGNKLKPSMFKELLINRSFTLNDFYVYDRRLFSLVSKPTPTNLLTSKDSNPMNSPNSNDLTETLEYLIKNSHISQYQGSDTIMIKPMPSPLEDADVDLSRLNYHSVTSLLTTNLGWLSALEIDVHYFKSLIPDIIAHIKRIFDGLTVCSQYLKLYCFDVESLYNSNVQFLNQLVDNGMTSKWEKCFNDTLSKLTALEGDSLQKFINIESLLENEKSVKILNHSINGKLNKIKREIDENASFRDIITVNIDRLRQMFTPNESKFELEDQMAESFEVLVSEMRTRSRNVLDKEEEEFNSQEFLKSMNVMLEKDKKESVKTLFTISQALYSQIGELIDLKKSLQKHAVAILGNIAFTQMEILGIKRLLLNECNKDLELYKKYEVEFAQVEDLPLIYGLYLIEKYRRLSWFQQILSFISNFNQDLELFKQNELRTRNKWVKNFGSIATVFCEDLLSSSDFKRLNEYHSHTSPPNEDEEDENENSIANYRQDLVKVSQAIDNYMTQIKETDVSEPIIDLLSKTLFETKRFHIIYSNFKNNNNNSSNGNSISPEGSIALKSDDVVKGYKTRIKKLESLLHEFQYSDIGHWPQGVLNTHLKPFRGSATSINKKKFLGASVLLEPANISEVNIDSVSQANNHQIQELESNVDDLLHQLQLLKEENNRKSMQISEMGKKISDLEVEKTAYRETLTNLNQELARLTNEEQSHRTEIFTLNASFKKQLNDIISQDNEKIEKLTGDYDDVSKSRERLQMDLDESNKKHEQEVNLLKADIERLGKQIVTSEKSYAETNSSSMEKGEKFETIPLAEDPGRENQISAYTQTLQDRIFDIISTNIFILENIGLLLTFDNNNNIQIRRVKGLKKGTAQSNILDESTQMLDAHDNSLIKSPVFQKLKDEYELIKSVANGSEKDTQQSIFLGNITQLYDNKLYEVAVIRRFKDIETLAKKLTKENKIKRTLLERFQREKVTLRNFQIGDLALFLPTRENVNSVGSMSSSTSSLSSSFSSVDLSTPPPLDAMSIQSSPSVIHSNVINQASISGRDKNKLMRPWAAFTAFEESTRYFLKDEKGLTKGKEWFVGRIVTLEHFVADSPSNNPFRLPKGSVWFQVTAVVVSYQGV
B2: Autophagy-related protein 19 (Saccharomyces cerevisiae), P35193 (parent)
chain: B1 chain
partner: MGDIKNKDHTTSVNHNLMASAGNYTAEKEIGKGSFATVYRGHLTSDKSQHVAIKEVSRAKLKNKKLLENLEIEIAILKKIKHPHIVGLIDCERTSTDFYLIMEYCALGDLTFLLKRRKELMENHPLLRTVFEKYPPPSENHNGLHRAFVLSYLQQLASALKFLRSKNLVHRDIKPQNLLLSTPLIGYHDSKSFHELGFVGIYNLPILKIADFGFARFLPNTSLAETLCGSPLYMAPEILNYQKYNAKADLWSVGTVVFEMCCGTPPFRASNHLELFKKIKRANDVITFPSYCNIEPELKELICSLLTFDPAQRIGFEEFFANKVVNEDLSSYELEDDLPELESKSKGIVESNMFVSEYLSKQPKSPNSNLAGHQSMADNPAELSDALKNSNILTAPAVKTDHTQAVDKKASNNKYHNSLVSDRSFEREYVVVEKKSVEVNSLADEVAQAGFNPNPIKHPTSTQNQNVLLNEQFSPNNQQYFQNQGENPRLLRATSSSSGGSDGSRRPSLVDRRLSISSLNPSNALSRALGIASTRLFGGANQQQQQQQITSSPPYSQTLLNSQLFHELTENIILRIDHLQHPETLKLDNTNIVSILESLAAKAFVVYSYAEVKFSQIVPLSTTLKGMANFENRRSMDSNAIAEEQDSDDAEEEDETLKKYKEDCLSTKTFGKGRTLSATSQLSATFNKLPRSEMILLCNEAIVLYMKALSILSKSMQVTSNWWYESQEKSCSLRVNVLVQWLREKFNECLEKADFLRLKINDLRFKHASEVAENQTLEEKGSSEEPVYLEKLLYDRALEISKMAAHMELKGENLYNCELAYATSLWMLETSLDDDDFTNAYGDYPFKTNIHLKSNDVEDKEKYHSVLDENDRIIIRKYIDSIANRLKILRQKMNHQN
B3: Serine/threonine-protein kinase ATG1 (Saccharomyces cerevisiae), P53104 (parent)
chain: B2 partner
partner: B1 chain
B4: Autophagy-related protein 19 (Saccharomyces cerevisiae), P35193 (parent)
chain: B1 chain
partner: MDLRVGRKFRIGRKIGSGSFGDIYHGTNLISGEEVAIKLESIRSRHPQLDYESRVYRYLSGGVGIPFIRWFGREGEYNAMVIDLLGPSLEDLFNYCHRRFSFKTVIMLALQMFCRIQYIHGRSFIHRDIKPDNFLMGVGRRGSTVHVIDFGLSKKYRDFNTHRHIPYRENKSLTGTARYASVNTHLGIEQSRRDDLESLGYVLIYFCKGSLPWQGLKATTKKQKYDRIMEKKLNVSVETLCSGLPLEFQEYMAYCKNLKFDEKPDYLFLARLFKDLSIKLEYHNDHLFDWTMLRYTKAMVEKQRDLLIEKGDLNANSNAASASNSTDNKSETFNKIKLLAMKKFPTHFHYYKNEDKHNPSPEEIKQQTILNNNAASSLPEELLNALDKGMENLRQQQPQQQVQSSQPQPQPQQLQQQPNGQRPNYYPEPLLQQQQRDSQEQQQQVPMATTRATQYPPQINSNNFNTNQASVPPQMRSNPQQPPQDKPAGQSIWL

Variants of: B1
Details: with atg11_yeast ATG11, Q12527
With MNNSKTNQQMNTSMGYPLTVYDECNKFQLIVPTLDANIMLWCIGQLSLLNDSNGCKHLFWQPNDKSNVRILLNNYDYGHLFKYLQCQRKCSVYIGEGTLKKYNLTISTSFDNFLDLTPSEEKESLCREDAHEDPVSPKAGSEEEISPNSTSNVVVSRECLDNFMKQLLKLEESLNKLELEQKVTNKEPNHRISGTIDIPEDRSELVNFFTELKTVKQLEDVFQRYHDYERLSQECDSKTEIASDHSKKETKIEVEPPNERSLQITMNQRDNSLYFQLFNNTNSVLAGNCKLKFTDAGDKPTTQIIDMGPHEIGIKEYKEYRYFPYALDLEAGSTIEIENQYGEVIFLGKYGSSPMINLRPPSRLSAESLQASQEPFYSFQIDTLPELDDAAIISTAISLSYDGDDNEKALTWEEL [S390A;S391A;S396A] the “effect of a mutation on the interaction” value was “disrupting interaction”.

Variants of: B1
Details: with atg11_yeast ATG11, Q12527
Remark: another data set of the same source
With MNNSKTNQQMNTSMGYPLTVYDECNKFQLIVPTLDANIMLWCIGQLSLLNDSNGCKHLFWQPNDKSNVRILLNNYDYGHLFKYLQCQRKCSVYIGEGTLKKYNLTISTSFDNFLDLTPSEEKESLCREDAHEDPVSPKAGSEEEISPNSTSNVVVSRECLDNFMKQLLKLEESLNKLELEQKVTNKEPNHRISGTIDIPEDRSELVNFFTELKTVKQLEDVFQRYHDYERLSQECDSKTEIASDHSKKETKIEVEPPNERSLQITMNQRDNSLYFQLFNNTNSVLAGNCKLKFTDAGDKPTTQIIDMGPHEIGIKEYKEYRYFPYALDLEAGSTIEIENQYGEVIFLGKYGSSPMINLRPPSRLSAESLQASQEPFYSFQIDTLPELDDAAIISTAISLSYDGDDNEKALTWEEL [S390A;S391A;S396A] the “effect of a mutation on the interaction” value was “disrupting interaction”.

Variants of: B1
Details: with atg11_yeast ATG11, Q12527
Remark: another data set of the same source
In the case of MNNSKTNQQMNTSMGYPLTVYDECNKFQLIVPTLDANIMLWCIGQLSLLNDSNGCKHLFWQPNDKSNVRILLNNYDYGHLFKYLQCQRKCSVYIGEGTLKKYNLTISTSFDNFLDLTPSEEKESLCREDAHEDPVSPKAGSEEEISPNSTSNVVVSRECLDNFMKQLLKLEESLNKLELEQKVTNKEPNHRISGTIDIPEDRSELVNFFTELKTVKQLEDVFQRYHDYERLSQECDSKTEIASDHSKKETKIEVEPPNERSLQITMNQRDNSLYFQLFNNTNSVLAGNCKLKFTDAGDKPTTQIIDMGPHEIGIKEYKEYRYFPYALDLEAGSTIEIENQYGEVIFLGKYGSSPMINLRPPSRLSAESLQASQEPFYSFQIDTLPELDDDDIISTDISLSYDGDDNEKALTWEEL [S390D;S391D;S396D], the “effect of a mutation on the interaction” value is reported as “increasing interaction”.

Variants of: B2
Details: with atg1_yeast ATG1, P53104
MNNSKTNQQMNTSMGYPLTVYDECNKFQLIVPTLDANIMLWCIGQLSLLNDSNGCKHLFWQPNDKSNVRILLNNYDYGHLFKYLQCQRKCSVYIGEGTLKKYNLTISTSFDNFLDLTPSEEKESLCREDAHEDPVSPKAGSEEEISPNSTSNVVVSRECLDNFMKQLLKLEESLNKLELEQKVTNKEPNHRISGTIDIPEDRSELVNFFTELKTVKQLEDVFQRYHDYERLSQECDSKTEIASDHSKKETKIEVEPPNERSLQITMNQRDNSLYFQLFNNTNSVLAGNCKLKFTDAGDKPTTQIIDMGPHEIGIKEYKEYRYFPYALDLEAGSTIEIENQYGEVIFLGKYGSSPMINLRPPSRLSAESLQASQEPFYSFQIDTLPELDDAAIISTAISLSYDGDDNEKALTWEEL [S390A;S391A;S396A] was tested, and the “effect of a mutation on the interaction” value was “disrupting interaction”.

Variants of: B2
Details: with atg1_yeast ATG1, P53104
Remark: another data set of the same source
In the case of MNNSKTNQQMNTSMGYPLTVYDECNKFQLIVPTLDANIMLWCIGQLSLLNDSNGCKHLFWQPNDKSNVRILLNNYDYGHLFKYLQCQRKCSVYIGEGTLKKYNLTISTSFDNFLDLTPSEEKESLCREDAHEDPVSPKAGSEEEISPNSTSNVVVSRECLDNFMKQLLKLEESLNKLELEQKVTNKEPNHRISGTIDIPEDRSELVNFFTELKTVKQLEDVFQRYHDYERLSQECDSKTEIASDHSKKETKIEVEPPNERSLQITMNQRDNSLYFQLFNNTNSVLAGNCKLKFTDAGDKPTTQIIDMGPHEIGIKEYKEYRYFPYALDLEAGSTIEIENQYGEVIFLGKYGSSPMINLRPPSRLSAESLQASQEPFYSFQIDTLPELDDDDIISTDISLSYDGDDNEKALTWEEL [S390D;S391D;S396D], the “effect of a mutation on the interaction” value is reported as “disrupting interaction”.

Variants of: B3
Details: with atg19_yeast ATG19, P35193
With D211A the “effect of a mutation on the interaction” value was “disrupting interaction”.

Variants of: B4
Details: with hrr25_yeast HRR25, P29295
In the case of MNNSKTNQQMNTSMGYPLTVYDECNKFQLIVPTLDANIMLWCIGQLSLLNDSNGCKHLFWQPNDKSNVRILLNNYDYGHLFKYLQCQRKCSVYIGEGTLKKYNLTISTSFDNFLDLTPSEEKESLCREDAHEDPVSPKAGSEEEISPNSTSNVVVSRECLDNFMKQLLKLEESLNKLELEQKVTNKEPNHRISGTIDIPEDRSELVNFFTELKTVKQLEDVFQRYHDYERLSQECDSKTEIASDHSKKETKIEVEPPNERSLQITMNQRDNSLYFQLFNNTNSVLAGNCKLKFTDAGDKPTTQIIDMGPHEIGIKEYKEYRYFPYALDLEAGSTIEIENQYGEVIFLGKYGSSPMINLRPPSRLSAESLQASQEPFYSFQIDTLPELDDAAIISTAISLSYDGDDNEKALTWEEL [S390A;S391A;S396A], the “effect of a mutation on the interaction” value is reported as “disrupting interaction”.
